In publication PMC11310338:

B1: SCAF8-CID domain fragment comprising residues 1-139 (domain or fragment)
chain: MEAVKTFNSELYSLNDYKPPISKAKMTQITKAAIKAIKFYKHVVQSVEKFIQKCKPEYKVPGLYVIDSIVRQSRHQFGQEKDVFAPRFSNNIISTFQNLYRCPGDDKSKIVRVLNLWQKNNVFKSEIIQPLLDMAAGIP
B2: Human SCAF4-CID domain fragment comprising residues 1-139 (domain or fragment)
chain: MDAVNAFNQELFSLMDMKPPISRAKMILITKAAIKAIKLYKHVVQIVEKFIKKCKPEYKVPGLYVIDSIVRQSRHQFGTDKDVFGPRFSKNITATFQYLYLCPSEDKSKIVRVLNLWQKNGVFKIEIIQPLLDMAAGTS

Target: phosphorylated CTD peptide (pS2pS5) of RNAP2 labeled with an NH2 terminal FITC group
Assay: fluorescence polarisation

Row | Binder | Kd
1 | B1 | 622 nM
2 | B2 | 366 nM
